Molecular target: T1, Rat PDI (protein disulfide isomerase) in extracted rat liver microsomal membranes (rat, UniProt P04785 20-509)
T1 construct: Endogenous protein solubilised from extracted rat liver microsomal membranes; also called 55 kDa PDI protein
T1 sequence (looked up): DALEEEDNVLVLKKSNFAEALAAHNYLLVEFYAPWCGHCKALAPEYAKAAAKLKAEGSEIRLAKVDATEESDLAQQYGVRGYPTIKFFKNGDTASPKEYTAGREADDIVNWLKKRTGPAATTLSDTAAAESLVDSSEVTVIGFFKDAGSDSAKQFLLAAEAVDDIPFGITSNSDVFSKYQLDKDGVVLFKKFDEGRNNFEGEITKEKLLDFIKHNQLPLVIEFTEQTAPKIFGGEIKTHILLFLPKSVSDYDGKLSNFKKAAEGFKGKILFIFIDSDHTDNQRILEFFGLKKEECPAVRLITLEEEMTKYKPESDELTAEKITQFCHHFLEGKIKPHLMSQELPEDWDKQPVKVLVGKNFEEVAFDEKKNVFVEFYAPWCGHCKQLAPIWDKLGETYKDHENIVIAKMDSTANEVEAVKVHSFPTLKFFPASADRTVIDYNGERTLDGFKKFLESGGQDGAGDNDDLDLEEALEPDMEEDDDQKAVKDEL
Assay: immunoprecipitation with rat VKORC1 antibodies from solubilised rat liver microsomal membranes, Western blot with PDI monoclonal antibody
Text: Lane St. has standard proteins. […] Lanes D and E show Western blots of extracted human and rat liver microsomes respectively with peptide antibodies raised against an epitope on human VKORC1 (see Experimental Procedures). […] The sequence of precipitating and first antibody is shown. Rat PDI and the heavy (HIgG) and light (LIgG) chains of mouse IgG are visible. Panel II, lanes G.Ox. and G.Red show immunoprecipitates obtained with rat VKORC1 antibodies and their Western blots developed with the mouse PDI monoclonal antibody as the first antibody and horse radish conjugated goat anti-mouse IgG as the second antibody. The sequence of precipitating and first antibody is shown. Preparation of the samples before SDS-PAGE in 8-12% CRITERION gels is described in detail in Experimental Procedures. The samples in G.Ox and G.Red were not reduced and reduced with ME respectively prior to electrophoresis.
Extracted microsomal membranes were resuspended in buffer D (250 mM sodium phosphate, 0.5 M KCl, 20% glycerol, 0.75% CHAPS, pH 7.85 containing 10 μg/ml of the Sigma Protease Inhibitor Cocktail for use with mammalian cell and tissue extracts) using a Dounce homogenizer. For blocking of free thiol groups, 20 mg NEM was added per ml of buffer D before homogenizing. The protein concentration was 6.8 mg/ml. […]

B1: Rat VKORC1 in extracted rat liver microsomal membranes (enzyme, UniProt Q6TEK4 1-161, looked up)
chain: MGTTWRSPGRLRLALCLAGLALSLYALHVKAARARNEDYRALCDVGTAISCSRVFSSRWGRGFGLVEHVLGADSILNQSNSIFGCMFYTIQLLLGCLRGRWASILLILSSLVSVAGSLYLAWILFFVLYDFCIVCITTYAINAGLMLLSFQKVPEHKVKKP
notes: Endogenous protein
B1: binds.

From US20100331255A1 (WAKE FOREST UNIVERSITY HEALTH SCIENCES, published 2010)
